# From patent publication US8586530B2, “Modulation of inhibition of ferrochelatase by N-methyl protoporphyrin” (University of South Florida, priority 2006, dated 2013)
# Substitutions are numbered along the chain they refer to. In names and notes the source's numbering stands.
# B1: P255R: murine ferrochelatase variant in which P255 was replaced with arginine (protein, UniProt P22315 54-422, looked up, variant P255R)
# Ferrochelatase, mitochondrial: TTKPQAQPERRKPKTGILMLNMGGPETLGEVQDFLQRLFLDRDLMTLPIQNKLAPFIAKRRTPKIQEQYRRIGGGSPIKMWTSKQGEGMVKLLDELSPATAPHKYYIGFRYVHPLTEEAIEEMERDGLERAIAFTQYPQYSCSTTGSSLNAIYRYYNEVGQKPTMKWSTIDRWPTHPLLIQCFADHILKELNHFPEEKRSEVVILFSAHSLPMSVVNRGDPYPQEVGATVHKVMEKLGYPNPYRLVWQSKVGPVRWLGPQTDEAIKGLCERGRKNILLVPIAFTSDHIETLYELDIEYSQVLAQKCGAENIRRAESLNGNPLFSKALADLVHSHIQSNKLCSTQLSLNCPLCVNPVCRKTKSFFTSQQL
# B2: P255G: murine ferrochelatase variant in which P255 was replaced with glycine (protein, UniProt P22315 54-422, looked up, variant P255G)
# Ferrochelatase, mitochondrial: B1 Ferrochelatase, mitochondrial with R255G
# B3: wild-type ferrochelatase: recombinant wild-type, murine ferrochelatase with N-terminal penta-histidine tag (protein, UniProt P22315 54-422, looked up)
# Ferrochelatase, mitochondrial: B1 Ferrochelatase, mitochondrial with R255P
# How the values were obtained:
# [1] = Steady-state kinetics of ferrochelatase and P255 variants; type: biochemical, murine; details: for Km: protoporphyrin, read-out: Km^PPIX
# From the text: One possible explanation for these findings is that the mechanism of interaction between the enzyme and the protoporphyrin substrate differs from that for inhibitor binding. It is conceivable that the active site of ferrochelatase is optimized for interaction with the protoporphyrin substrate and retains a certain degree of plasticity towards this end. Possibly, this facilitates the induction of porphyrin deformation in the protein matrix, and in so doing, ensures the catalytic reaction to proceed. In contrast, the constraints of the active site towards NMPP are presumably more stringent than towards the protoporphyrin substrate and any alterations of the active site affect the selectivity towards NMPP. Another possible explanation, and not necessarily mutually exclusive from the former, is that mutations introduced in the active site (e.g., at the P255 position) cause an alteration of the regiospecificity of ferrochelatase, such that the mutated active site can accommodate either a regioisomer or a combination of regioisomers of NMPP different from those of the wild-type active site. It is worth noting that 1) the commercially available NMPP used in this study consists of a racemic mixture of the eight potential isomers and 2) only one NMPP isomer was identified in the crystal structure of the B. subtillis ferrochelatase.
# Protein Purification. Wild-type, murine ferrochelatase and variants were over-expressed, under the control of the E. coli alkaline phosphatase promoter phoA, in BL21(DE3) cells. The purification of the recombinant proteins bearing a N-terminal penta-histidine tag, assessment of the purity by sodium dodecyl sulfate-polyacrylamide gel electrophoresis and determination of protein concentration and enzymatic activity were as described previously (Shi and Ferreira 2004).
# [2] = tested on: E. coli Δvis cells; test: Genetic selection in E. coli: growth of Δvis transformants on NMPP-containing plates; type: cell-based, Escherichia coli; details: medium containing more than 20 μM NMPP
# Protocol: To isolate Escherichia coli Δvis transformants harboring loop variants more tolerant to NMPP than wild-type ferrochelatase, 33 variants isolated from a library of 214 functional, ferrochelatase clones were plated on LB-ampicilin medium containing 0.2 μM, 2 μM or 20 μM NMPP. E. coli Δvis cells can only grow when hemin is added to the medium or when the cells are transformed with an active ferrochelatase expression plasmid. Transformants harboring a subset of the functional loop variants including K250N, V251L, P255R, P255G, K250M/V251L/W256Y and Q248P/S249G/250P/G252W were grown onto LB-ampicilin plates with increasing concentrations of NMPP. […] Based on this observation, the P255 variants were selected for further characterization.
# Genetic Selection in E. coli. E. coli Δvis cells harboring plasmids encoding active, ferrochelatase variants isolated from a random sequence library of the loop motif were grown 16-18 h at 37° C. in LB agar medium containing 50 μg/mL of ampicillin and varying concentrations of NMPP. For the preparation of the NMPP-containing LB-ampicilin agar plates, a 2 mM stock solution of NMPP was made by dissolving NMPP in 20 mM NH4OH containing 2% Tween-20. The solution was filter-sterilized and kept at 4° C. The stock solution was diluted 100-, 1000- and 10000-fold to prepare LB-ampicilin plates containing 20 μM, 2 μM and 0.2 μM NMPP. Δvis cells transformed with wild-type ferrochelatase and functional variants were grown in LB medium containing 50 μg/mL ampicilin and 0.4% (w/v) glucose at 37° C., overnight, with shaking at 220 RPM. Each of the overnight cultures was diluted 20-fold into fresh medium and grown at 37° C. for ˜1 hr until OD600 reached ˜0.4-0.5. Subsequently, these cultures were diluted with LB medium by 10^6 and 100 μl aliquots of the diluted stock were spread on LB-ampicilin agar plates and LB-ampicilin agar plates containing NMPP at 0.2 μM, 2 μM and 20 μM, respectively. The plates were incubated at 37° C. for 16 hr, and the colonies on each plate were counted. […]
Molecule,kcat [1],Km [1],colony formation of Δvis cells expressing the enzyme [2]
B1,0.13 ± 0.013 s⁻¹,2.65 ± 0.44 µM,could form colonies
B2,0.0983 ± 0.0233 s⁻¹,2.51 ± 0.8 µM,could form colonies
B3,0.0683 ± 0.005 s⁻¹,1.4 ± 0.2 µM,could not
